Laboratory results taken from the domain aggregation screens of Martell et al. (2025).

Test: soluble fraction after stress (log2 fold change); higher = more stays soluble; pooled small domains, quantitative proteomics
Settings: stress: pH 4
Method in brief: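 High-throughput quantitative proteomics was run on pooled custom libraries of small protein domains following pH 4 stress. Fold changes are on a log2 scale; higher values mean more of a domain remained soluble. The fold change in soluble amount is taken as a measure of aggregation propensity.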

Sequence	soluble fraction (log2)
HMDGQPQLLIKNGQLLVSTALKNGMSANDLMFRLRTEGITDIRYVKRAVLEQNGQLTITQVGDD	-0.0398
HMQQVLGDVNEDDKVDFLDAIVVLRHDAEIIQLTDNQMKAAEVNKDGKVDFLDAIMILRYDAEIIGS	-0.196
HMTLAAATESREYLADLARRLDAADHGDKTRIKAEAAGLLGWSMATLHARLARDVGWTSGRK	-0.166
HMAPRDKADKYVAAGIAEELVPILQKVGYYLVTDLKDVKAQKIQQQIGEIIKKYKLDIEKPSVQDIEGWN	-0.259
HMPYSKIALQISHLLKSHGVPLSNKQIYEKLINDFQLSINYSNLTNNILPRMNSDSSINVEKVTRGYWQY	0.22
HMDSLIEYENERSLRRLINENLSDYERTVWWLYYAGADAAHIAEQTGRSKRSAENAITRVRRKLRALITQS	-0.188
HMKPEQIELTFSGTTAMRLDKFLAENQPGLSRAKLQAIISSGSVEVNGKVITKQAFKLDPGDLVKALIPE	≥ 0.43
HMEKIRIQKYLSERGVMSRRAADSALAEGRIAVNGVTARPGDKIDPSSDTLTIDGRIVTTGTAP	≥ 0.43
HMTKASYKITTPSGVNVREGAGKRYAVRKAYPKGKTVTVTQTKEVNGNLWGKTSDGWFAIKYQGAVYASA	0.2
HMQYFDIETEIQKFIKSENNLSDFDKETLQSFLYQLSKGSPEENTAKKVVDILNKFLPLTTAIINMIKALT	-0.381
HMSLNNAHNTIFPRIIELMEMKQLENVLLIGGGIIPRKDIESLESSGVTKLYGPGTPVKETIEFITNWVK	-0.533
HMEDPKLAQLTEQERKILDLIADGLTNRQIAEKMFLAEKTVKNYVSTILAKMGMSNRSEAAAYVARLEAG	-0.292
HMSPAVSLITGKLGAETYYKQGLKKAKEKDYEGALDDLIKAYEFFPDKKIKTQVDKLASFLGKPPIL	0.0374
HMQQEAVSGKLLQLDLAKKEGRLSTDLGREVLFHIPKPELFVHLSVGQRIIIKLDAGQEAVGV	0.0773
HMHGSSSTVPPVKGLSFEQARLTLAENDLTVEISDSIYDRNARPGTVVESWPRAGSVVKQGRQVYVTVTAF	-0.685
HMAAGVESLTEKEFAVASLVGGGASNREIAERLAMSERTVKSHLSSIFRKMDVRDRVQLALAMND	-0.0425
HMANSREIPKLAGIEQEEAVKQLLDLDLKPVIEEITDDDTDAGDVVRTDPAAGEHVAVDTEITVFISIG	-0.192
HMFVVVPDLIGKTINQFEEDLSELNLKYVVSDSGNFNPEFKINAVLDQSPKANSKVKDGRKIYLTLNAS	-0.324
HMTEWDDATVKDAVEYFMSVNGRVPTVTDFKKENGLPSHPVIKQRYKINLHEWLNKNFPTYY	-1.19
HMGAARRFEMSEGGSQKFWEVAVEGPALTVRFGKLGTAGTTQTKTLASAEAAAKEADKLVREKTKKGYAP	-0.596
HMDKNNLLIIYRTNSEGTPYAFSVTPSAKSLDALHKDAKEMLPFLEKSMNNFFSIQIWERAEYLKY	-0.379
HMNMPHEIDANFISSLGRLIDNHGKNYGDFQIFREMFLDYFPRFDELSSNNKEKINRRLYKFFETLFG	-1.44
HMLYETLKKGDQGTSVKTLQEKLKALGYLTGAADGKYGAGTETAVKSFQKAAGLTETGTADPETLSAVYAA	0.0393
HMKMDGESQRLLSLIKEQGGSLPIGDKSSPEAIYRLTQMSKKTFKMALGSLYKAKQVVLSPTEVRL	0.0519
HMTGGLTQEQISQLRMLTPQQIEQLRQLQPQQVEMLRQLRPEQVMLLTQLEPQQIMAFMRLEPSVIMQL	-0.657

Sequence	soluble fraction (log2)
HMLSLKAQVYEIIRQKILQQEYALGEKINIDTVADELKISNSPIREALMMLSQDGLIEMVPNNGARVI	-1.27
HMKNIFDWLKQINYHKQPADSFTEKDWELFNSYMVHRFMSMNREFIEVVNYVQEMPPQEKILIYNIYREF	0.25
HMTGQHFDLEDTDGNLVYEIDSTVPLKTFYIYDAMHTEIFRMTKELLHALPTYRFYLYGEPYGVLKKQ	-0.52
HMETITDRLNRRSLELNVSQADIIRTTGAGRGTVSGWFSGANAPSAKYLESLAVALKTSTTWLLSGKD	0.0972
HMSLLQDRQRHEALAALGYYRGSVSAAWGAASVEALKAAQAALGVEVDGKWGPKTEDVIQAALGT	-0.453
HMNADAIIGRMGKVTEPITPDGYGRVEIDGDSWKATAVGGVAIAEGTRVSVVSLDSIIITVKTV	-0.117
HMQDENAVTYLLEIKNADANDIASVLKTLKSPDADVVVYKTLNMIIFTGQGSEINGLVKVARQLDRK	-1.3
HMTSAIAEGTVIRLTQSTNIRESMSEDAPKVATAFSGEKVTVIMSYAEGWTKVTYGDKTGYIKTELL	-0.443
HMTTTYEINDEMLKPLILEIFNKSKQRFGSTKIAPVLKREGYTASIAKVKTLMNELGIKPVNA	0.206
HMIVVMKTSASERDLQEVIARIEQFGFATRSIVGSERATVSVLGAPLPDSLQEALERMPGVEEVVRITK	-0.0559
HMSVKLYPNPTRSVTTFATDVDKWYLYDNQGKLVSEGNTKTIDVTAFPVGIYFVKTIKGNNSTFVKLIV	-0.183
HMLPKNITNTIDHWIQKFPQGKQRSAIIAALHAVQHHNKGFLTNDLLNQVADYIDVPKMNVYEVATFYSM	0.22
HMTTTYTVPKVTGMTLEEAREDPDVVGRFTIVEGEKVTSDTVPVGQIVSQEPAAHRQVGEDGLTITVNIS	-0.2
HMAASEAESIRILLSEGVDRVHLRKPQSAEADMRRLIEALPPELYPRLTLQDHLHLAGEYGT	-0.162
HMGRGAAKGPLKELGLDPVTGRPLVVKDGKFGMYVTDGETNAGLRRGDLVEQLTLDRGMELLAERRARADQ	-0.258
HMTVKKLTINEDNSGRRIDNYLLSIFNSLPRSKIYNIIRKGEVRVNSSRIKPNYRLEQGDLVRIPPNLEFT	0.0853
HMDNVLGKSGKVIFVNEEINSYGRAFIPGHGEWNIRTKSDQNIHINDGIKVIERDGITLVVEL	-1.3
HMGEVQALIPGLVSKLFVVEGESVKIGQKLIILEAMKMENEIASPINGTIKKIYIKSGDKIDKGSIIMEIT	-0.0106
HMSETAVTYNEDFEADGSLRPNEQAVLDAFTGVLKLTVSELEKKTGLRNVVPVVASLMAKGAVEVSEELK	-0.763
HMLPFGHTRLEDGTIQEIPEQIALARKVAEMYKAGFPVMQISIKTEGLLTPRQIYGLMNHWGVKR	-0.412
HMEPDEYTVRQAFMKFDVGGEGRVPRDKLKALLETLGLELSAQQVRESEEQLDPEGTGFTSYGDFLMWWN	-1.33
HMELLTYREMDVLNLLDQRLTNKEIAHALGISTETVRQHTVNLFRKLNVDNRRQAIVVARSLGYIGTPT	-0.894
HMETAVMPDVMKLDSTTAIQALKDKGFATIETYEVKSDRPAGVVVRQSETADSVVALSKEILLGVSNGADY	-0.00473
HMNRKILVLLAGKEQITDNVSVMQSIHRYAFINTATINKAQHEILIEKEEIRQEALTLIHEFLK	0.0276
HMTTELDTTAITPIIQKVLKANPDVVAKYKAGQQQVIGFLMGQVMRELSTKPNPKELQSLIVAQLQQA	-0.0703

Sequence	soluble fraction (log2)
HMKFSVEEQFKKSFPKNTYETFSETSLKGVYEVYNGKQVYYYLPVNDVLLLGSIVTKDGKNLTQESNSKK	-0.0849
HMAPGSKAEIPEDLMKVINKDPKMKAFVATLNKANIMAISFRLSTAKKPETRERRFNLILETLKRGEKF	-0.644
HMDYVKTLGETINVRVAASTDADIYKLLPGGEILNRVGYNEEWTKVMVDGSTFYVYSEYVIQTEPPA	-1.25
HMRTNNEITSYKLKSGKKRWKFQTYLGLDDKGQKVSVTRQGFRTYNEAISEYNKLRAQGTQGYQ	≥ 0.43
HMGEPQAWNELIGNLLRQWEARQTGWTPARKREALDRVLGAADPAALYTRLQGLLKSWTQAMTDADA	-0.956
HMEQNHYEVLGVSRDAIPEEIRKAYFEYARKLHPDANPDPGAAEQFMRIQTAYDVLSNPDRRHEYDGLLPP	-0.249
HMSDDAVVRMRVPEDALGLSLRETDFRQRFGVYVLAIETRDGKLLAPPDPQRPLGKDDVLVVIQKR	-0.279
HMKTYEILFDILSRESDYISGEKLAQELGISRTSIWKAIQHLEKEGVHIESVKNKGYKLLSGDLLIAEKI	-0.343
HMSGALDTVVGIRMLKLLSTPIEKSKAFQVGIINKDGKKLRDPTSGERQHYTFLNRFVFKVQYALMRS	-0.072
HMPPNPELGKKLLKLRKEFKMTQDDVANILGMSRTSFSKYENGIANPPLQVMRKLASIYNVGLEYLI	-0.0729
HMKNVADEVFEKMLNMIIEGDWKKGEMIPSENELREAFSVSRSTVRQAVQRLSALGIVRSRQGKGTYVEQV	0.0309
HMKYWTISDLYSKLEEDQVELGAFSEDSNKVTVLDRQGYEHVIKILSSDVPALTELFRKKKVRFAVAG	0.0959
HMGEILYSGVLKGGDGPEATKLALEKFLGEANTQVAGRIGVQPETQVIWLSREAVDSAASTLSQHKGNMYV	-0.0574
HMDAPLIIAETRVDVPDATVSDAVMMLDLRNTNALLFKNSGSGVLNMVYRRGDGTIGWGEPQ	-0.543
HMSDQTYVKDPETGEIFRVHKRVWETGEFWRDPVWGNILGGVERGSELERLLREEGWRPLQQSLEGFPEQ	-0.276
HMGMGDALRILFNQAMLIEREQYLQAGAYERNENPVNYANGFKAKTLNTRVGALEVAVPQTRDSAFYPSFL	-0.163
HMILYDDEYKGPRYRYGLHSRPLSPGAVPKGFIIHSDRPHPDFRHGTLDYPVKLPDDRAANFELIFIGEFD	-1.19
HMSLTEESAKSLIGLTENEAVKVAAERGWTVRVAMRDGEAFMLTQDYSENRVNLTVMKTLVTAVTI	-0.0567
HMQESTPGEGYKWREDVLLRVMSQNGIDESLRDEFVRHAVNYDIDDNMYLKKAEIESAAEAWVLENS	-1.92
HMVLELRIGQIVRGVLLQLVGEREGIVSVGGVPVRARLEAEIPLGRGVMLQVQPGSDANNILLKPV	-0.139
HMDHAHWEEHEVKLLLTLAIQEKEKFNWNQFGLTREGWRNIYPHFPQYSRKQINNKFDFLKQKYRAWKDS	-1.09
HMPVSTLLGDNLRRLRTAKGYTQEAVADAARISVAAYRNYETGRAIPKVNTLLAIARALGVSLNDLVTE	-0.00358
HMVELVKVPALQGETVDEAIADIKDAGLEPGQVRYVESDLPKDTVTYQSVDAGEQVKAGTVINLQASKGP	0.137
HMRRVEDVRTALEHFAAARNTTPMAMTLDQRREAMRELAASGLLNLRRALSEVAQTLGVARSTVYTYLP	≥ 0.43
HMKNSMANVQARREKILSAVDQSEPVAVEGLAQRFNVSITTLRRDLKALSDMGQVKWHHGLVERT	0.164
